Patent publication US20230192833A1

Target: human VEGFC (Vascular endothelial growth factor C) (human) (UniProt P49767)
Assay: cell-based or functional assay

B1: 1E9 antibodies (monoclonal anti-VEGFC antibodies of the 1E9 hybridoma) (antibody, V domains shown)
VH: QAQLRQPGAELVKPGASVKLSCKASGYTFISYWMHWVKQRPGQGLEWIGEINPSNGRTNYNEKFKSKATLTVDRSSSTAYMQLSSLTSEDSAVYYCASTSLFYYAMNYWGQGTSVTVSS
VL: DVVMTQTPLSLTVSLGDQASISCRSSQSLVHSNGNTYLHWYLQKPGQSPKLLIYKVFNRLSGVPDRFSGSGSGTDFTLKISRVEAEDLGVYFCSQNTHVPWTFGGGTKLEIK
B1 gave a decrease in proliferation of cancer cells (MTT assay, A498, 786-O, MDA-MB231, 48 h) of 40%.
